# Measured values: the DeepSol protein solubility set
# Test: soluble on expression in E. coli; label from the status in PepcDB or PDB records
row,Sequence,soluble on expression in E. coli
1,MSLNRKLLTADERQARDTERRSQLDVALMEGVQAILDSDSFKAVLAANAKFHSYSVNNAMLIWLQNPAAERVAGFHTWRKLGRSVKKGAKGIMIYAPRVATNVDAATGSEETHVYFGIEHVFDISQTEGDDIPTLDCPVLTEERGHDVYDRLVTYATRDGLTVSSDVAHELSEAMGYYSAVSKRIWVRPTAKAQMLKTLIHEIAHHLTEGKHTREAHETIAEGVAFQVCACLGIDSGERSFPYIAGWSASEGGTALIKQVLGHIQAITKQVMAIVEPADEANEGAEGHHHHHH,soluble
2,MSLNRRELLERISEYQFACIELNLYLDNNPRDKKALDSYNRYCDKFTQAVCDYESKYGALTNFGYESSEYPWSWISEPWPWDKSFYK,soluble
3,MSLNTQDFLAGYTKRFVDNKEEDMSLDEYLELCKTDPTAYANPAERLLMAIGEPELIDTRHDPVLSRIFSNKIIHHYEVFEDFYGMEEPIEQIVGFLKHAAQGLEETKQVLYLLGPVGGGKSSIAEKLKDLMERVPFYAIKGSPVFESPLSLFNPQEDGELLRERFGIPTRYLRYLMSPWAVKRLQEYNGDISKFRVIKVKPSRLKQIAIAKTEPGDENNQDISSLVGKVDIRKLEEFSQDDPDAYSYSGGLCRANRGLLEFVEMFKAPIKVLHPLLTATQEGNYNATEGLSAIPFEGIILAHSNESEWQSFRNNKNNEAFIDRINIVKVPYCLRVSEEIKIYQKLIHNSSLANAPCAPGTLDMLAQFSVLTRLKEPQNSSIYSKMRVYNGESLKDTDPKAKSYQEYRDFAGVDEGMSGISTRFAFKILSKVFNFDHTEVAANPVHLMYVLERQIEQEQFPQELHETYLNFIKEYLATKYVDFIGKEIQTAYLESYSEYGQNIFDRYITYADFWIQDQDYRDPDTGEIFDRALLNLELEKIEKPAGISNPKDFRNEVVNFVLRARANNRGKNPVWNSYEKLKSVIEKKMFTNTEDLLPVISFNAKASEEDKKKHEEFISRMVEKGYTRKQVRLLCEWYLRVRKSQEGHHHHHH,soluble
4,MSLNTQLAIIRSKGKEHICYREEECFVDVSYPMVTFTKGEDDFEIVKCDHPSMEETFLYQESRLSIVIEMYHNGWPALSLKDPVTHEIYTVLTVNLEDKAAFSLPDRAFVDINNNPDAMEFLLSNKLAEDTGYRRQSGWVSYPMVTLNLPTFYRLDPHAFSAILNIREGHHHHHH,soluble
5,MSLNYVAEIDLLAEELAQELEIEGGETYGILAAHLRSLYGIHITRTEAAGGLIRHFDPAGKTLALSSYMAAPTRCFQLALQIAQLHAGATVDRVLAGAGFRNAEAAEICRIGLHNYFAAALILPYGQFHRAAQELRHDLELLAVRFGASLEQVAHRLSTLQRPGMKGVPIFFAKIDRAGNITKRHSATRLQFARFGAACPLWNIHQAFESSDRIVRQLAETPDGVRYLSIATQIEKAGAGFNTERPRYAIALGCEISHAQNFVYADTLDLGNAASFKPIGISCRVCERVDCVQRAVPPLKRKLHFDHLSRGALPYQIAEGHHHHHH,not soluble
6,MSLPAKTLVQAAANSGLRAVSVRHSSQAPKVALLGAAGGIGQPLGLLLKQDPLVAHLALYDVVNTPGVAADLSHIDSNAKVTAHTGPKELYAAVENADVIVIPAGVPRKPGMTRDDLFNTNAGIVRDLAAVIAKASPKALIAIITNPVNSTVPIASEVLKKAGVYDPKRVFGVTTLDVVRSQAFVSELKGHDASKTVVPVVGGHAGITIIPLLSQVKPSTKFSEEEISKLTPRIQDAGTEVVNAKAGAGSATLSMALAGARFANALVRGIKGEKNVQCAYVASDAVKGVEYFSTPVELGPNGVEKILGVGKVSAYEQKLIDASVPELNKNIAKGVAFVKGN,not soluble
7,MSLPAYKRVLLKLSGEALMGDDAFGINRSTIEGMVNDIAEIVRLGVQVAVVIGGGNIFRGVAGGAAGMDRATADYMGMLATMMNALALQDAMRHANIEGRVQSALRMDQVVEPYIRPRAIRQLEEGKVVIFAAGTGNPFFTTDTAAALRGSEIGAEIVLKATKVDGVYTADPKKDPSATRYTTISFDEAISRNLQVMDATAFALCRDQKLPIKVFSIQKPNALKRVIMGEDEGTLEGHHHHHH,soluble
8,MSLPEDYWSAKDYQRNASFVPKLTKDIVKRINLSSSDELLDLGCGDGVLTNELVSQCRRVVGIDASPDMIKAARELGLNAYVIPGEKLLDASEIPSESFDVVFSNAALHWIMRQPKNRPIVMKGVSRVLRTKGRFVAECGAFGNVSEVVGSIYSILLALGATKEQIDQANPWFFGSEDDYTRMLEEAGFHVEYVENISRPTLLNKDVREWLDTFAQHFYHAFPQWKDIIRETVYNALLVTDCRSDGKWFLQYRRLRFVAHKEEGHHHHHH,soluble
9,MSLPRARSTIAMCLALTALLGACGRSPQECMERAMYFESNRSSRDGMVAVGSVVMNRVESGQYPKSVCGVVGQRFQFAPRIMSRRMDSRSLPLVRETARSVLKGERHPMIGDAMFFHTAGHRFPYDNMHYVLVTGGNAFYERRPSALVTQPVPPQPMEGLTGWRGW,not soluble
10,MSLPRITALRTIRLPERPKLIWVEVETEDGLTGLGETFRGAQAVEAVLHEQTAPAIIGRAAENITSISSELLNPYVGFGSSSAEVRAASAVDIALWDLAGQRAGVPLHVALGGAARDRVPVYATCAGYDFNTSLGGRRSIGSAELSTGPYDDQVAFMRDAGVLAESLVAEGYAAMKIWPFDDFASITPHHISLTDLKDGLEPFRKIRAAVGQRIEIMCELHSLWGTHAAARICNALADYGVLWVEDPIAKMDNIPAVADLRRQTRAPICGGENLAGTRRFHEMLCADAIDFVMLDLTWCGGLSEGRKIAALAETHARPLAPHDCTGPVALMAGLHLALHAPTAIFQEVVRASLATWYADLVDHLPVIQEGIALAPTRPGLGTALLPHVRKIAGAVVRESGKPREGHHHHHH,soluble
11,MSLQHMYRCARVQGLDTSEGLLLFGKEHFYVIDGFTMTATREIRDIETLPPNMHEPIIPRGARQGPSQLKRTCSIFAYEDIKEVHKRRYLLQPIAVEVFSGDGRNYLLAFQKGIRNKVYQRFLAVVPSLTDSSESVSGQRPNTSVEQGSGLLSTLVGEKSVTQRWERGEISNFQYLMHLNTLAGRSYNDLMQYPVFPWILSDYDSEEVDLTNPKTFRNLAKPMGAQTDERLAQYKKRYKDWEDPNGETPAYHYGTHYSSAMIVASYLVRMEPFTQIFLRLQGGHFDLADRMFHSVREAWYSASKHNMADVKELIPEFFYLPEFLFNSNNFDLGCKQNGTKLGDVILPPWAKGDPREFIRVHREALECDYVSAHLHEWIDLIFGYKQQGPAAVEAVNVFHHLFYEGQVDIYNINDPLKETATIGFINNFGQIPKQLFKKPHPPKRVRSRLNGDNIGISVPPGATSDKIFFHHLDNLRPSLTPVKELKEPVGQIVCTDKGILAVEQNKVLIPPAWNKTFAWGYADLSCRLGTYESDKAVTVYECLSEWGQILCAVCPNPKLVITGGTSTVVCVWEMGTSKEKAKPLTLKQALLGHTDTVTCATASLAYHIIVSGSRDRTCIIWDLNKLSFLTQLRGHRAPVSALCINELTGDIVSCAGTYIHVWSINGNPIVSVNTFTGRSQQIVCCCMSEMNEWDTQNVIVTGHSDGVVRFWRMEFLQVPETPAPEPVEDLEMQEGCPEAQIGQQAQDDDSSDSETEEPSVSQDPKDTSSQPSSTSHRPRAASCRATATWCTDSGSDDSRRWSDQLSLDEKDGFIFVNYSEGQTRAHLQGPLAHPHPNPIEARSYSRLKPGYRWERQLVFRSKLTMHTAFDRKDNTHPAEVTALGVSKDHSRILVGDSRGRVFSWSVSDQEGHHHHHH,not soluble
12,MSLQIHALFPTAVATAQLRLDPLEMAAQLQTLLMLRGADEGNPNSGCAWTGDLNGVWQLHRHPDFSGMTDRVVEQAWAYLSAVGFDQAKLALHVQRCWPVLSDWDQMVGRHHHPNAHLSAVLYLSGSGSGEDGVLRIHAPSQPNELVPGSAAGHGGPIAAGHPLNQPHWDLAPQPGLLVLFPSRLDHSVLANGDPELLRCSISFDFVLTAPVDGDPPEYLAPHPSLWTPQPLEVNEGHHHHHH,soluble
13,MSLQMYAGWRVVVDKNCIKIVSSNLAAQKLIEKQHNARLDTIAAKQQKVELYSVSMATMKELYKLSMQNISGFGTESLYYKEIGSCALDIIRNVPELIKTVSKAKFTNQLYCLTELGGLVMETQQLVGNFVNIVNNAKIPNPLKGEGTAERKSDGYNILDRYERMSLANSIYTNLNEIRYKVDGMMLMAQYATLNDLCFAINPEGWANVMTMRNQVDGLVSDWNGLVATNEGHHHHHH,soluble
14,MSLQRARCYLIGETAVVLELEPPVTLASQKRIWRLAQRLVDMPNVVEAIPGMNNITVILRNPESLALDAIERLQRWWEESEALEPESRFIEIPVVYGGAGGPDLAVVAAHCGLSEKQVVELHSSVEYVVWFLGFQPGFPYLGSLPEQLHTPRRAEPRLLVPAGSVGIGGPQTGVYPLATPGGWQLIGHTSLSLFDPARDEPILLRPGDSVRFVPQKEGVCEGHHHHHH,not soluble
15,MSLQTFVIVGHVIPNNDMSPTLNKGDRVIVNKIKVTFNQLNNGDIITYRRGNEIYTSRIIAKPGQSMAFRQGQLYRDDRPVDASYAKNRKIKDFSLRNFKELDGDIIPPNNFVVLNDHDNNQHDSRQFGLIDKKDIIGNISLRYYPFSKWTIQFKSEGHHHHHH,soluble
16,MSLQTPDTATTAPYLLAGAPTFDLSISQFREDFNSQNPSLPLNEFRAIDSSPDKANLTRAASKINENLYASTALERGTLKIKSIQMTWLPIQGPEQKAAKAKAQEYMAAVIRTLTPLMTKTQSQKKLQSLLTAGKNKRYYTETEGALRYVVADNGEKGLTFAVEPIKLALSESLEGLNKEGHHHHHH,soluble
17,MSLQTSPDMFINRELSWLRFNSRVLDQCSKNLPLLEKLKFIAIYCTNLDEFYMIRVAGLKQLFSAGVNASSSDEMTPLQQLKAIRKYLHQEKELLERYFNEITSELEKENLFIKHYENLDENLKQKCDEYFFSNIFPVIVPIAVDATHPFPHLNNLSFSLAVKICDKAHPELVKFGMIRIPRVLPRFYEVSANIYVPIESIVHQHAEEIFPGYKLLASAAFRVTRNADMVIEEEEADDFMMILEQGLKLRRKGAFVRLQIQKDADEQIVEFLNTHMKIFHKDVYEYSILLNLPSLWQIAGNKTFTHLLSPLYTPKTLPPFDENLSIFDAVEKEDILIIQPFESFDPVYKFIKEASKDPEVISIRMTLYRVEKNSNIVQALIDAASDGKQVTVMVELKARFDEENNLHWAKALENAGAHVIYGITGFKVHAKVSQVIRKQGDKLKFYMHLSTGNYNASSAKIYTDVSYFTSKAEFARDTTSFFHILSGFSKNRRLQTLSMSPNQIKEKVLEMIRIETSKKNEGVIVAKMNSLVDSDIIQALYEASMEGVQIDLIIRGICCLKPDEEYSKNIRVRSIIGKYLEHARVFYFKHSEPNYFISSADWMPRNLERRLELMTPIYDERSKAKLAQFLRLQLSDNVLAYELKNNGEYEKIPSSEKIIDSQQTLEEYVSKIYKTLKKDTDQSRATHLASKLFKENEGHHHHHH,soluble
18,MSLQVLDRVELYLVKTPLPAPHAPSWIPGTIRTHVSMCIVRFITDDGVEGWSGFPAAGRERAGLGDLLAGLFLGQEAGDIDKLSERIQIMAAGGNFNWWLEPAFWDIKAKSAGLPLYKLLGGTDDRIRLYASSGELRDPGARREEAEARLAEGFDTMKIRVHDFDEAVDIDHISDIARHMQGRMRISVDCNQAFRLTQNGDAPLWSLDRAKRFVDAAADVGLAWVEEPLFGEWHEEIARLTTYSRVPVAGGELHVMGYRELARMMKMGCYNIFQPDAMWAGGITQCLKVAALCWQEGIRFTPHCWSNGFGFIANAHVFAASGFAGEELFEYPLSPPGWTPEGRDQIFSEPFLHENGWFAMPQTPGLGFEINQETLEKHGQCFFRASRNSTHWMPEALPAEGHHHHHH,soluble
19,MSLQYFKVRDEIRSMVSDSVDEIVDGVSKTTAEVINGRKSIAQYATSLIENNPEPDNVRTIISQPLIKNTFLLVGFGLEKDGSNINNDPSWNPGPTWDPRVRPWYKDAKNAGKLVITAPYADSASGEILVSVATPVKDSATGQFLGSIFYDVSLAELAELVNEVKLFDAGYVFIVSEDGTTIAHPKKEFNGKPMSEFLGESKINVDTHQVIINGKPYAVSFSDVEGEDWYVGVVIDEEIAYAALDELRRSEGHHHHHH,soluble
